Laboratory results from patent US20090291088A1, “THERAPEUTIC COMBINATIONS OF ANTI-IGF-1R ANTIBODIES AND OTHER COMPOUNDS” (Biogen Idec MA Inc., priority 2008, published 2009).

Key:
[1] = biological target: T1, IGF-1R (Homo sapiens, UniProt P08069); assay: Ligand blocking assay (RIA): 125I-IGF-1 / 125I-IGF-2 binding to immobilized IGF-1R; settings: for IGF Blocking IGF-1 / IGF Blocking IGF-2: Fabs; for IGF Blocking IGF-1: 125I-IGF-1; for IGF Blocking IGF-2: 125I-IGF-2; for blocking of IGF-1 and IGF-2 binding to IGF-1R: 100 nM-0.01 nM antibody, IGF-1R-Fc
T1 construct: human IGF-1R(1-903)-Fc (denoted hIGF-1R-Fc, generated by Biogen Idec)
From the text: Ligand blocking assay (RIA). […] Insulin (Arg-Insulin, Cat #01-207) was purchased from Upstate Cell Signaling Solutions (Lake Placid, N.Y. (now part of Millipore, Concord, Mass. (USA)). ^125I-rhIGF-1 (Cat # IM172), ^125I-rhIGF-2 (Cat# IM238) and ^125I-rhInsulin (Cat# IM166) were purchased from Amersham Biosciences (Piscataway, N.J.). AffiPure goat anti-human IgG, Fcγ fragment specific antibodies (Cat #109-005-098, Jackson ImmunoResearch, West Grove, Pa.) was used for IGF-1R-Fc capture. As detection antibody, goat anti-mouse IgG HRP (Cat #1030-05, Southern Biotech Birmingham, Ala.) was used.
Human insulin receptor α-subunit specific antibodies, Clone 83-14, (Cat #AHR0221, Biosource International, Inc., Camarillo, Calif.) and the 47-9 (Cat #E55502M, Biodesign International, Saco, M E) were used as positive controls blocking of insulin-insulin receptor binding experiments. Recombinant IGF-1R-Fc fusion protein was produced at Biogen Idec (Cambridge, Mass.).
As isotype matched mouse negative control antibodies, 2B8 (murine α-CD20.1gG,) and 2B8 mkm.G2a (murine α-CD20 MAb, IgG2a, Biogen Idec, Lot #NB3304-87, San Diego, Calif.) were used. The negative control for Fabs was R001-1B provided by Christilyn Graff (Biogen Idec, Cambridge, Mass.). PBS used in buffers was from BioWhittaker (Cat. # 17-513F, Walkersville, Md.).
Recombinant human IGF-1R (Histidine tagged version) or IGF-1R-Fc was coated onto IMMULON2 HB (high binding) Removawell strips (Dynex Technologies, Inc., cat. #6302) diluted with carbonate coating buffer pH 9.5 to a concentration of 250 ng/well. After overnight incubation at 4° C., the wells were washed three times with washing buffer (0.05% Tween 20/PBS) then blocked with blocking buffer (3% BSA/PBS) for one hour at room temperature. The blocking buffer was removed and the wells washed three more times. Antibody, Fab, or ligand preparations were diluted to desired concentration with dilution buffer (1% BSA/0.05% Tween 20/PBS) and plated at 50 μl per well in duplicate. After 45 minutes at room temperature, 100,000 cpm of either [125I] rhIGF-1 or [125I] rhIGF-2 in 50 μl dilution buffer was added per well. This was incubated at room temperature for one more hour. The wells were washed again three more times and left liquid free after the last wash. The air-dried wells were counted with the Isodata Gamma Counter.
Alternatively, Fabs were evaluated by a modified capture assay, where the IGF-1R-Fc was captured using anti-human IgG immobilized to a plate. Immobilization was carried out by overnight incubation of goat anti-human IgG, Fcγ fragment specific antibody (200 ng/well) in carbonate coating buffer. The wells were washed, blocked and 250 ng of IGF-1R-Fc was added per well.
The ligand blocking ability of the anti-IGF-1R antibody was determined by a solid phase RIA capture method as described in Example 3. […] After 1 hour of incubation at room temperature, the wells were washed and counted for bound radioactivity by a Gamma Counter. An isotype matched negative antibody control, IDEC-151 (human G4), was used. Percent (%) inhibition was calculated as =[1−(Ave.CPM with Ab)/(Ave.CPM with buffer)]×100%.

[2] = biological target: T2, IGF-1R phosphorylation (Homo sapiens, UniProt P08069); assay: Inhibition of IGF-1 and IGF-2 mediated IGF-1R phosphorylation in MCF-7 cells (ELISA); format: cell-based; settings: Fabs, MCF-7; for Inhibition of IGF-1R Phosphorylation IGF-1: IGF-1 stimulated; for Inhibition of IGF-1R Phosphorylation IGF-2: IGF-2 stimulated
T2 construct: wild type IGF-1R expressed on MCF-7 tumor cells; endogenous in cells; host or cells: MCF-7
Description: Cell lines: IGF1R expressing human breast carcinoma cell line MCF-7 (NCI) were maintained at 37° C. and 5% CO2 in MEM eagle (ATCC) containing 10% FBS, 1× non-essential amino acids, 2 mM L-glutamine, 1 mM sodium pyruvate and 1000 U/ml penicillin and streptomycin. Cells were sub-cultured twice weekly for maintenance and assay, and used with a maximum of 12 passages.
MCF-7 cells were plated in 2 ml growth media at 2×10^5 to 4.0×10^5 cells/well in Ploy-D-Lysine coated 12 well plates (BD Biosciences, #35-6470) and cultured at 37° C., 5% CO2. At 48 hours, media removed and cells serum starved overnight at 37° C., 5% CO2 Serum free media was removed and control or test antibodies at indicated concentration were added in 350 ul of fresh serum free media and incubated for 1 hour at room temperature, or alternately at 37° C. Fabs were tested at 200 nM, 20 nM and 2 nM concentration and the mAbs were tested at 67, 6.7 and 0.67 nM. The commercial anti-IGF-1R control antibody used was αIR3 (EMD biosciences, Oncogene Research products, #D27249). […] Ligand was incubated at […] for 37° C. antibody experiments. Cells were lysed in 1× cell lysis buffer (Cell Signal Technologies, #9803) with 1 mM PMSF for 1 hour at room temperature.
Cell lysates were added to ELISA plates pre-coated with IGF-1Rp antibody (Clone 1-2, Biosource International, #AHR0361) and incubated for 2 hours. Following which plates were washed and the plate bound phosphorylated receptor was detected with the biotin labeled anti-phosphotyrosine antibody 4G10 (Catalog #16-103, Upstate Cell Signaling Solutions (Lake Placid, N.Y. (now part of Millipore, Concord, Mass. (USA)) and streptavidin-HRP (BD Pharmingen, #554066). Assay is developed by addition of TMB substrate (Kierkegaard & Perry, #50-76-00) and color stopped by addition of […] (LabChem, Cat#LC25830-1). Optical density is measured at 450 nm using a Molecular Devices plate reader and percent inhibition over the ligand control is calculated for each antibody-ligand sample.
The effect of human anti-IGF-1R antibodies on IGF-1R signaling was evaluated using MCF-7 cells (human breast adenocarcinoma cells).

Molecule | IGF Blocking IGF-1 [1] | IGF Blocking IGF-2 [1] | Inhibition of IGF-1R Phosphorylation IGF-1 [2] | Inhibition of IGF-1R Phosphorylation IGF-2 [2] | blocking of IGF-1 and IGF-2 binding to IGF-1R [1]
Fab M14-B01: human anti-human IGF-1R Fab from phage display library; VH SEQ ID NO:20, VL SEQ ID NO:83 (antibody, V domains shown, Antibody variable heavy chain sequence; Antibody variable light chain sequence) VH: EVQLLESGGGLVQPGGSLRLSCAASGFTFSNYHMAWVRQAPGKGLEWVSVISPTGGRTTYADSVKGRFTISRDNSKNTLYLQMNSLRAEDTATYYCARAGYSYGYGYFDYWGQGTLVTVSS VL: DIQMTQFPATLSVSPGERATLSCRASQSVMRNLAWYQQKPGQPPRLLIYGASKRATGIPARFSGSGSGTAFTLTISNLEPEDFAVYYCHQRSTWPLGTFGPGTKLEAK | ++ (>30%@1ug/ml) | ++ (>30%@1ug/ml) | ++ (>30%@1ug/ml) | ++ (>30%@1ug/ml) | –
M12-E01.G4.P: full-length human IgG4.P version of Fab M12-E01 (antibody, V domains shown) VH: EVQLLESGGGLVQPGGSLRLSCAASGFTFSPYSMLWVRQAPGKGLEWVSSIGSSGGSTRYADSVKGRFTISRDNSKNTLYLQMNSLRAEDTAMYYCARVRGILHYDILIGRNLYYYYMDVWGKGTTVTVSS VL: QYELTQPPSVSEAPRQRVTISCSGSSSNIGNNAINWYQQLPGKPPKLLIYYDDLLPSGVSDRFSGSKSGTSGSLAISGLQSEDEADYYCAAWDDNLNGVIFGGGTKLTVL | – | – | – | – | block both IGF-1 and IGF-2 binding
M12-G04.G4.P: full-length human IgG4.P version of Fab M12-G04 (antibody, V domains shown) VH: EVQLLESGGGLVQPGGSLRLSCAASGFTFSKYTMHWVRQAPGKGLEWVSSIVSSGGWTDYADSVKGRFTISRDNSKNTLYLQMNSLRAEDTAVYYCARDRSIAAAGTGWSVSFVDWFDPWGQGTLVTVSS VL: DIQMTQSPLSLSASVGDRVTITCRASQSINGYLNWYQQKPGKAPNLLIYATSSLQSGVPSRFSGSGSGTDFTLTISSLQPEDFATYYCQQSYSTPPYTFGQGTKLEIK | – | – | – | – | block both IGF-1 and IGF-2 binding
Fab M12-G04: human anti-human IGF-1R Fab from phage display library; VH SEQ ID NO:9, VL SEQ ID NO:73 (antibody, V domains shown, Antibody variable heavy chain sequence; Antibody variable light chain sequence) VH: EVQLLESGGGLVQPGGSLRLSCAASGFTFSKYTMHWVRQAPGKGLEWVSSIVSSGGWTDYADSVKGRFTISRDNSKNTLYLQMNSLRAEDTAVYYCARDRSIAAAGTGWSVSFVDWFDPWGQGTLVTVSS VL: DIQMTQSPLSLSASVGDRVTITCRASQSINGYLNWYQQKPGKAPNLLIYATSSLQSGVPSRFSGSGSGTDFTLTISSLQPEDFATYYCQQSYSTPPYTFGQGTKLEIK | + (>30%@10ug/ml) | + (>30%@10ug/ml) | + (>30%@10 ug/ml) | + (>30%@10 ug/ml) | –
M14-C03.G4.P: full-length human IgG4.P version of Fab M14-C03 (antibody, V domains shown) VH: EVQLLESGGGLVQPGGSLRLSCAASGFTFSKYMMSWVRQAPGKGLEWVSYISPSGGLTWYADSVKGRFTISRDNSKNTLYLQMNSLRAEDTAVYYCARDGARGYGMDVWGQGTTVTVSS VL: DIQMTQSPATLSLSPGERATLSCRASQSVSSYLAWYQQKPGQAPRLLIYDASNRATGIPARFSGSGSGTDFTLTISSLEPEDFAVYYCQQRSNWPPEVTFGPGTKVDIK | – | – | – | – | blocked only IGF-2 binding
